Blank lines part the entries; values can stand above or below the molecule they belong to.
Experiments:
[1] = target: human ROR1 expressed on the engineered cell line CHO-K1/ROR1 (human) (UniProt Q01973); experiment: flow cytometry of CHO-K1_ROR1 cells stained with the PE-labelled antibody; the CHO-K1 row of the same box prints 20.8
[2] = target: human ROR1 expressed on the engineered cell line CHO-K1/ROR1 (human) (UniProt Q01973); experiment: flow cytometry of CHO-K1_ROR1 cells stained with the PE-labelled antibody; the ROR1- gate prints 0.75
[3] = target: human ROR1 expressed on CHO cells (CHO-K1/Human ROR1 stable cells) (human) (UniProt Q01973); experiment: flow cytometry, 10 ug/ml on Human ROR1-CHO-K1 cells (curve 1), fluorescent secondary antibody
[4] = target: human ROR1 expressed on CHO cells (CHO-K1/Human ROR1 stable cells) (human) (UniProt Q01973); experiment: as above; remark: listed apart in the source
[5] = target: mouse ROR1 expressed on CHO cells (CHO-K1/Mouse ROR1 stable cells) (mouse) (UniProt Q9Z139); experiment: flow cytometry, 10 ug/ml on Mouse ROR1-CHO-K1 cells (curve 2), fluorescent secondary antibody
[6] = target: mouse ROR1 expressed on CHO cells (CHO-K1/Mouse ROR1 stable cells) (mouse) (UniProt Q9Z139); experiment: as above; remark: listed apart in the source
[7] = target: mouse ROR1 expressed on CHO cells (CHO-K1/Mouse ROR1 stable cells) (mouse) (UniProt Q9Z139); experiment: flow cytometry, 10 ug/ml antibody on Mouse ROR1-CHO-K1 cells (curve 2), fluorescent secondary antibody
[8] = target: human ROR1 expressed on CHO cells (CHO-K1/Human ROR1 stable cells) (human) (UniProt Q01973); experiment: flow cytometry, 10 ug/ml antibody on Human ROR1-CHO-K1 cells (curve 1), fluorescent secondary antibody
[9] = target: human ROR1 Kringle-His domain protein (amino acid sequence at positions 308-395, Acrobiosystems, RO1-H5223) (human) (UniProt Q01973); experiment: indirect ELISA, antigen coated at 1 ug/ml
[10] = target: human ROR1-His protein (fused with a His protein tag, Acrobiosystems, RO1-H522y) (human) (UniProt Q01973); experiment: indirect ELISA, antigen coated at 1 ug/ml
[11] = target: T1, human ROR1 Kringle-His domain protein (amino acid sequence at positions 308-395, Acrobiosystems, RO1-H5223) (human, UniProt Q01973 308-395); experiment: indirect ELISA, antigen coated at 1 ug/ml
T1 construct: also called Human ROR1 Kringle-His protein; recombinant human ROR1 Kringle-His protein; not shown: His tag
Description: (§1) Indirect ELISA was used to assess the binding capability of the above purified antibodies to human ROR1-related recombinant proteins. ELISA plates (Nunc) were coated with 1 μg/ml of human ROR1-His protein, human ROR1 Frizzled-His domain protein, and human ROR1 Kringle-His domain protein in 100 μl/well of CBS overnight at 4° C. The plates were washed with PBS-T (0.05% Tween) and blocked with 300 μl/well of PBS containing 3% skim milk at 37° C. for 1 hour. Subsequently, the blocking solution was discarded, and 100 μl of purified antibody at 8 μg/ml (about 100 nM) was added to the first well and diluted according to a 3-fold gradient to obtain a total of 11 test concentration gradients. The plates were then incubated for 1 hour at room temperature. The plates were washed 3 times with PBST and incubated with 100 μl/well of horseradish peroxidase-conjugated mouse anti-human IgG Fc fragment (GenScript) for 0.5 hours at 37° C. The plates were washed five times with PBST, a TMB chromogenic solution (GenScript) was then added, and the plates were incubated for 15 minutes at room temperature in the dark. The reaction was stopped by adding 50 μl of 1 M HCl stop solution (Sigma). The plates were read at 450 nm using a microplate reader. FIGS. 1-3 show the results of the ELISA experiment on the binding of 8 positive recombinant antibody clones to ROR1-related antigen proteins, and the EC₅₀ for each antibody is as shown in Table 2 below: the antigen binding capacity of the antibodies tested was all equal to or higher than that of the positive reference antibody R11-scFv.

[12] = target: T2, mouse ROR1 expressed on CHO cells (CHO-K1/Mouse ROR1 stable cells) (mouse, UniProt Q9Z139 30-937); experiment: flow cytometry, antibody at 10 ug/ml on CHO cells
T2 construct: whole, on cells
Description: CHO cells expressing human and mouse ROR1 and parental cells as the negative control for detection were collected and washed 3 times with PBS. 2.5×10⁵ test cells and 100 μl of purified antibody at 10 μg/ml were added to a 96-well plate, and the plate was incubated at 4° C. for 1 hour. The cells were then washed 3 times with PBS, 100 μl of iFluor-labeled goat anti-human IgG, an Fcγ-specific fragment antibody, was added, and the plate was incubated at 4° C. for 45 minutes. Finally, the cells were washed 3 times with PBS, and the signals were read using FACS BD Calibur.

[13] = target: T3, human ROR1-His protein (fused with a His protein tag, Acrobiosystems, RO1-H522y) (human, UniProt Q01973 30-403); experiment: indirect ELISA, antigen coated at 1 ug/ml
T3 construct: also called recombinant human ROR1-His protein; not shown: His tag
Description: as §1

[14] = target: human ROR1 Frizzled-His domain protein (amino acid sequence at positions 165-305, Acrobiosystems, RO1-H5222) (human) (UniProt Q01973); experiment: indirect ELISA, plate coated with human ROR1 Frizzled-His, HRP anti-human IgG Fc, OD450
Chain of human ROR1 Frizzled-His domain protein (amino acid sequence at positions 165-305, Acrobiosystems, RO1-H5222) (human) (Q01973 165-305 limits assumed, form in doubt): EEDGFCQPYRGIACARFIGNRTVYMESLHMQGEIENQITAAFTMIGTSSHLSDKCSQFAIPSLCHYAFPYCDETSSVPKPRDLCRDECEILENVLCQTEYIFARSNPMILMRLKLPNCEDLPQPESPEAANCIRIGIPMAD

Chain of mouse ROR1 expressed on CHO cells (CHO-K1/Mouse ROR1 stable cells) (mouse) (Q9Z139 30-937): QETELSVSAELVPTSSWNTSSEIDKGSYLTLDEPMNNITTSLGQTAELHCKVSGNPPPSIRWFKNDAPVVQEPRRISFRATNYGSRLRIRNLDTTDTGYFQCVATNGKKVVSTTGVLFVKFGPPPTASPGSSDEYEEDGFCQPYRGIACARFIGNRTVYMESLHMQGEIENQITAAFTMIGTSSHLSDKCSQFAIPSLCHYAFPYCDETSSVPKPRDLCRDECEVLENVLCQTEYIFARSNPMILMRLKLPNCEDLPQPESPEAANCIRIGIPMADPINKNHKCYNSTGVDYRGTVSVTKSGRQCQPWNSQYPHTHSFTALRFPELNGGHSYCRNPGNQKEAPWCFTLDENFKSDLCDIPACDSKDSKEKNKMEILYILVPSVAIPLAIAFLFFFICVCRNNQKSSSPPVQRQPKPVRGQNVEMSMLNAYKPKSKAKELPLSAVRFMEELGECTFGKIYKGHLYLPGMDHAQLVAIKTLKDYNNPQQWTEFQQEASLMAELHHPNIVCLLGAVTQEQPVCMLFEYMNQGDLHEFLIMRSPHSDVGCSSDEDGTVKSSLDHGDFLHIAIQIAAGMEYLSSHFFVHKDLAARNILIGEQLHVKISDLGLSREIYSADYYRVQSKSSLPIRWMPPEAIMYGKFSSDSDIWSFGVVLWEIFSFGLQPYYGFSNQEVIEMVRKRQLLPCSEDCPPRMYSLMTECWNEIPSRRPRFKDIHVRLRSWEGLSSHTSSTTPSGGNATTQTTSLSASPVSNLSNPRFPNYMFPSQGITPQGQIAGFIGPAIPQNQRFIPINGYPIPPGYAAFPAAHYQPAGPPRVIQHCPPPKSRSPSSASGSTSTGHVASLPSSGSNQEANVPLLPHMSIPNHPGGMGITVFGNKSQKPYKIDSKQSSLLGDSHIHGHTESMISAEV
Chain of human ROR1 expressed on CHO cells (CHO-K1/Human ROR1 stable cells) (human) (Q01973 30-937): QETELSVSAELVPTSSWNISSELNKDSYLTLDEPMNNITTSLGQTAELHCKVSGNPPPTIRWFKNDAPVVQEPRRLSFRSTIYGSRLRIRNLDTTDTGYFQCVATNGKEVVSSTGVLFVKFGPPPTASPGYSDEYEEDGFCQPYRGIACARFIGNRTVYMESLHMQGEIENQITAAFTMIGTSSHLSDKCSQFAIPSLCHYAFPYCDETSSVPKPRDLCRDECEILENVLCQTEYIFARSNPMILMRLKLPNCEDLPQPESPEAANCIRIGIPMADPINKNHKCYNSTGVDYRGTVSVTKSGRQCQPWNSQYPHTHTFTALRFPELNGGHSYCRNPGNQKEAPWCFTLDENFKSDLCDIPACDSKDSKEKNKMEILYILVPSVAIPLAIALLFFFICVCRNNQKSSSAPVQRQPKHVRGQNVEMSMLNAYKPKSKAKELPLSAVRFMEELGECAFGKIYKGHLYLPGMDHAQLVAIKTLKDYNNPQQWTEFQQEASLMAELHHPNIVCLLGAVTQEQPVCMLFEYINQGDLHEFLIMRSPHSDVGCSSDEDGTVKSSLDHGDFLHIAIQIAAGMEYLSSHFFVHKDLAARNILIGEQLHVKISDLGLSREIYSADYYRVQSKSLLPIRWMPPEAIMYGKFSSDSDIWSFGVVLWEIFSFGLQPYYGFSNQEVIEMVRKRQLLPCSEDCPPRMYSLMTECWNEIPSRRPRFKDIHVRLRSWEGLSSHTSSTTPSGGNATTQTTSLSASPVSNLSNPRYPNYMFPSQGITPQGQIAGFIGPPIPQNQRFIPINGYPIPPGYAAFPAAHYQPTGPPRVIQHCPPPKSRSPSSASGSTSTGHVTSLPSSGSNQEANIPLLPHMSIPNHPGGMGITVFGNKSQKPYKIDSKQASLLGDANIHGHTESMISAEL
T1 sequence (Q01973 308-395 limits assumed, form in doubt): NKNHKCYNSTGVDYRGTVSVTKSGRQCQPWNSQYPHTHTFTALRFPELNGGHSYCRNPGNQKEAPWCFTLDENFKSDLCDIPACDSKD
T2 sequence (Q9Z139 30-937): as the sequence (Q9Z139 30-937) above
T3 sequence (Q01973 30-403 limits assumed): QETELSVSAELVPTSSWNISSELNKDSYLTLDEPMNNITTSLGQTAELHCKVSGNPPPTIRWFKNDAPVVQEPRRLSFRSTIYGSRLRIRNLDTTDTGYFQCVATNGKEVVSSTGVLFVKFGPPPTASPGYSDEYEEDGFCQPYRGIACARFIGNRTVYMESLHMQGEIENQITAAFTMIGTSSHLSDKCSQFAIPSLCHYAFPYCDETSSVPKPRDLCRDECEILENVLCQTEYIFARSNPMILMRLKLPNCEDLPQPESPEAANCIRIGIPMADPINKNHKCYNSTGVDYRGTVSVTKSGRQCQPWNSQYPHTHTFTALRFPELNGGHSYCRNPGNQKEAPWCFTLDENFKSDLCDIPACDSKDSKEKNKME
Chain of human ROR1 Kringle-His domain protein (amino acid sequence at positions 308-395, Acrobiosystems, RO1-H5223) (human) (Q01973 308-395 limits assumed, form in doubt): as the sequence (Q01973 308-395 limits assumed, form in doubt) above
Chain of human ROR1-His protein (fused with a His protein tag, Acrobiosystems, RO1-H522y) (human) (Q01973 30-403 limits assumed): as the sequence (Q01973 30-403 limits assumed) above

Molecule: PE anti-human ROR1 Antibody (BioLegend, Cat #357804)
- Median : PE-H [1]: 13100
- ROR1+ gate, percent of cells [2]: 99.2

Molecule: Positive Ab- Cirmtuzumab (antibody)
- Geometric Mean : Alexa Fluor 647-H [7]: 32600
- Geometric Mean : Alexa Fluor 647-H [8]: 69000

B1: single domain antibody AHP16026 (Fc fusion)
chain: QVQLVESGGGLVQPGGSLRLSCAVLGSIEQINDINYYRWYRQPPGKQRDLVASINNSGELIYADSVKGRFFISRDKYTVYLEMRSLKAEDTAVYYCNAQDRGEYWGRGTQVTVSS
notes: VHH expressed from pcDNA3.4-Fc (HuIgG1); not shown: human IgG1 Fc of the pcDNA3.4-Fc (HuIgG1) expression vector
- EC50 [11]: 1.91 mg/L

B2: single domain antibody AHP15580 (Fc fusion)
chain: QVQLVESGGGVVQPGGSLRLSCAASGFVLRVNTVSWYRQAPGKQRELVALITSESNEYYDDSVKGRFTISRDNAKNTIYLHMNSLKPEDTGVYFCNFITTWGQGTQVTVSS
notes: as for B1
- binding result [12]: binds
- EC50 [13]: 0.0407 mg/L
- EC50 [11]: 0.0294 mg/L

Other lines, results leading:

- Geometric Mean : Alexa Fluor 647-H [3]: 137
- Geometric Mean : Alexa Fluor 647-H [4]: 286
- Geometric Mean : Alexa Fluor 647-H [5]: 93.3
- Geometric Mean : Alexa Fluor 647-H [6]: 135
Molecule: Human IgG (antibody)

- EC50 [9]: 1.17 mg/L
- EC50 [10]: 0.104 mg/L
Molecule: Positive reference antibody R11-scFv

- binding result [12]: binds
- EC50 (read off the curve) [14]: 0.1 mg/L
- EC50 [13]: 0.0203 mg/L
B3: single domain antibody AHP15768 (Fc fusion)
chain: QVQLVESGGGSVQAGGSLRLSCAVSGRSISLYNMGWFRQAPGKEREFVSAINWSGGRTYYADSVKGRFTISRNNAKNTMYLQMNSLKPEDTATYYCAVDVEGWFRVSGDAAGYDYWGQGTQVTVSS
notes: as for B1
